Data taken from paper PMC6859904.
Read-outs that look alike come from different tables or passages of the source.

Measured: enzymatic_activity

VCP/p97: 3D (S13D, S282D, T761D) phosphomimetic
increases: phosphorylation at S13 | phosphorylation at S282 | phosphorylation at T761
